Source: CN114395035A (JIANGSU MICKEE MEDICAL TECH CO LTD; INST OF MICROBIOLOGY OF …, dated 2022)

B1: IMCAS-123抗体 (全抗IgG1) (antibody, V domains shown)
VH: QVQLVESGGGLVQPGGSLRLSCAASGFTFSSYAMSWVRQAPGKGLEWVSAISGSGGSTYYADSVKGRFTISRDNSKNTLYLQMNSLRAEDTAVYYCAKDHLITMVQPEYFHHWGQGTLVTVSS
VL: DIQMTQSPSSVSASVGDSVTITCRASQGISRWLAWYQQRPGKAPKLLIYAAGNLETGVPSRFSGSGSGTDFTLTISDLQAEDFATYYCQQADSFPLTFGGGTKVDIKR
notes: also called T1线抗体
B2: IMCAS-364抗体 (全抗IgG1) (antibody, V domains shown)
VH: QVQLQESGGGVVQPGRSLRLSCAASGFTFSRYGMHWVRQAPGKGLEWVAVIWYDGSNKYYADSVKGRFTISRDNSKNTLYLQMNSLRADDTAVYYCAKQEGTYCSGGSCYSGLDYWGQGTLVTVSS
VL: not shown
notes: also called 金标抗体 (胶体金标记)

Target: SARS-CoV-2 Prototype RBD蛋白 (野生型新型冠状病毒刺突蛋白受体结合域段RBD蛋白) (SARS-CoV-2, UniProt P0DTC2 319-541)
Assay: SPR (Biacore 8K)

Binder | Kd
B1 | 0.18 nM
B2 | 1.04 nM
